Data on two molecules can be found in US20200317768A1 (published 2020).

For test [1], the target named is T1, cynomolgus monkey FcγRIIb extracellular domain with C-terminal His-tag (cynomolgus monkey).
T1 construct: Expressed in FreeStyle 293 cells and purified; also called cyno FcγRIIb; cynoFcγRIIb; not shown: C-terminal His-tag
T1 chain: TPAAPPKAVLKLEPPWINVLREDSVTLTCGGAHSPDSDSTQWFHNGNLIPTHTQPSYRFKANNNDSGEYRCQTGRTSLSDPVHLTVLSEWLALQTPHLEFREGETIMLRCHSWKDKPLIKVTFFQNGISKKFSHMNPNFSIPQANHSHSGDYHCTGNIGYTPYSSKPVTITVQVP
Description: SPR (Biacore); KD of SG1 divided by KD of the variant for this FcgR.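 Also: relative to parent M103205H795-SG1 carrying the SG1 human heavy chain constant region.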 For orientation: Surface plasmon resonance follows binding to a sensor surface in real time, without labels.

The target in test [2] is T2, cynomolgus monkey FcγRIIa1 extracellular domain with C-terminal His-tag (cynomolgus monkey).
T2 construct: Expressed in FreeStyle 293 cells and purified; also called cyno FcγRIIa1; cynoFcgRIIa1; not shown: C-terminal His-tag
T2 chain: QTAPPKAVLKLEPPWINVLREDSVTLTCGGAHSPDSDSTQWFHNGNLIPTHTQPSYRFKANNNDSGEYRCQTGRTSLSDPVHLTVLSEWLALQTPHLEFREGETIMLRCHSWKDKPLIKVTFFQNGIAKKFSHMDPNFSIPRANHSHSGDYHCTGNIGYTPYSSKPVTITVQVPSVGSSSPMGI
The description is as above.

Test [3] has as its target T3, human FcγRIIaH extracellular domain with C-terminal His-tag (human, UniProt P12318 34-217).
T3 construct: Expressed in FreeStyle 293 cells and purified; also called human FcγRIIa (type H); FcgRIIaH; not shown: C-terminal His-tag
T3 sequence: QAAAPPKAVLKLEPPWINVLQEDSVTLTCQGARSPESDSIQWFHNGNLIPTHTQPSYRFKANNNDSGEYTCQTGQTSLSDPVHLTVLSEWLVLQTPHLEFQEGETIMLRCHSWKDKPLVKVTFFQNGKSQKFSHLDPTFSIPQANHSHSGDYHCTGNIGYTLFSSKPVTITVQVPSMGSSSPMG
The test is described as above.

For test [4], the target named is T4, human FcγRIIb extracellular domain with C-terminal His-tag (human, UniProt P31994 43-217).
T4 construct: Expressed in FreeStyle 293 cells and purified; also called humanFcgRIIb; not shown: C-terminal His-tag
T4 sequence: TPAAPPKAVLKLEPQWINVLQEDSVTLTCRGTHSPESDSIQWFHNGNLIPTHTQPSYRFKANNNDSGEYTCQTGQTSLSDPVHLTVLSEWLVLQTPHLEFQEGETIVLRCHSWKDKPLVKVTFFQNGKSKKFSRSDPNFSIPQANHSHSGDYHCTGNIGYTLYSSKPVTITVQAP
The test is described as above.

The target of test [5] is T5, cynomolgus monkey FcγRIIa2 extracellular domain with C-terminal His-tag (cynomolgus monkey).
T5 construct: Expressed in FreeStyle 293 cells and purified; also called cyno FcγRIIa2; cynoFcgRIIa2; not shown: C-terminal His-tag
T5 chain: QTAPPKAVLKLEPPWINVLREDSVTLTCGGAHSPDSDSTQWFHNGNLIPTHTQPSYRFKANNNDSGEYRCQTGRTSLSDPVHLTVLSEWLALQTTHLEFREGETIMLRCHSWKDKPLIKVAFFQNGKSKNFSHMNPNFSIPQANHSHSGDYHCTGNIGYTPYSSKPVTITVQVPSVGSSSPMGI
Description: SPR (Biacore), antibody captured on chip, FcgR extracellular domain as analyte, 25 C. On the procedure: (§1) The kinetic analysis of interactions between these antibodies and FcγR was carried out using BIACORE® T200 or BIACORE® 4000 (GE Healthcare). HBS-EP+ (GE Healthcare) was used as the running buffer, and the measurement temperature was set to 25° C. A chip produced by immobilizing Protein A. Protein A/G or mouse anti-human IgG kappa light chain (BD Biosciences) onto a Series S Sensor Chip CM4 or CM5 (GE Healthcare) by the amine-coupling method was used. […] After the measurement, the antibody captured on the chip was washed off by allowing reaction with 10 mM glycine-HCl, pH1.5 and 25 mM NaOH so that the chip was regenerated and used repeatedly. The sensorgrams obtained as measurement results were analyzed by the 1:1 Langmuir binding model using the BIACORE® Evaluation Software to calculate the binding rate constant ka (L/mol/s) and dissociation rate constant kd (l/s), and the dissociation constant KD (mol/L) was calculated from these values. […] Regarding such interactions, KD values were calculated using the following 1:1 binding model described in BIACORE® T100 Software Handbook BR1006-48 Edition AE.
(§2) The resultant variants were expressed using M103202L889-SK1 as light chain and their affinity to human and cynoFcγRs were evaluated (Table 20).

Test [6] deals with T2, cynomolgus monkey FcγRIIa1 …. Described as above. Here is the method:
as §1, §2

The target of test [7] is T3, human FcγRIIaH extracellular domain …. The test is described as above. On the procedure:
as §1, §2

Test [8] has as its target T6, cynomolgus monkey FcγRIIIaS extracellular domain with C-terminal His-tag (cynomolgus monkey, UniProt Q8SPW2 21-206 at identity 1.00)).
T6 construct: Expressed in FreeStyle 293 cells and purified; also called cyno FcγRIIIaS; cynoFcγRIIIaS; not shown: C-terminal His-tag
T6 chain: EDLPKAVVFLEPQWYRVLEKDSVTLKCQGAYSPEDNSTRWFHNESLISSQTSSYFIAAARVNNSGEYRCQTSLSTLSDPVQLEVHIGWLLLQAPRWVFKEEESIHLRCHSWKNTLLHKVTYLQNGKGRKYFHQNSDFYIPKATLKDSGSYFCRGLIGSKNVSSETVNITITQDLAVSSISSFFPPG
The test is described as above. Here is the method:
as §1, §2

The target of test [9] is T7, human FcγRIIIaV extracellular domain with C-terminal His-tag (human, UniProt P08637 17-208).
T7 construct: Expressed in FreeStyle 293 cells and purified; also called FcgRIIIaV; not shown: C-terminal His-tag
T7 sequence (P08637 17-208 F176V): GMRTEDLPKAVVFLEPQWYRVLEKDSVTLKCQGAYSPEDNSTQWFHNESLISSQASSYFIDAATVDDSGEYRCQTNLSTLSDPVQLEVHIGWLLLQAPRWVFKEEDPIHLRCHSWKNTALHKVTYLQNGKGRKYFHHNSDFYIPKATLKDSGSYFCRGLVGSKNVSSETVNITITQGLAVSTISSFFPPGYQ
The test is described as above. On the procedure:
as §1, §2

One may read the Kd as a measure of binding affinity in units of concentration.

B1: M103205H795-MY170 / M103202L889-SK1 (antibody, human IgG1, kappa)
heavy: QVTLKESGPVLVKPTETLTLTCTVSGIDLSHDDISWVRQAPGKGLEWVGIISYAGSTYYASWAKGRLTISKDTSKNQVVLTMTNMDPVDTATYYCARGVPAYSHGGDLWGQGTLVTVSSASTKGPSVFPLAPSSKSTSGGTAALGCLVKDYFPEPVTVSWNSGALTSGVHTFPAVLQSSGLYSLSSVVTVPSSSLGTQTYICNVNHKPSNTKVDKKVEPKSCDKTHTCPPCPAPELLNGPSVFLFPPKPKDTLMISRTPEVTCVVVDVSEEDPEVKFNWYVDGVEVHNAKTKPREEQYNSTYRVVSVLTVLHQDWLNGKEYKCKVSNKALPAPIEKTISKAKGQPREPQVYTLPPSREEMTKNQVSLTCLVKGFYPSDIAVEWESNGQPENNYKTTPEVLDSDGSFFLYSKLTVDKSRWQQGNVFSCSVMHEALHNHYTQKSLSLSP
light: DIVMTQSPATLSLSPGERATLSCTSSQSVYHANWLSWFQQKPGQPPKLLIYWASTLAYGVPSRFSGSGSGTDFTLTISSLQPEDAATYYCAGGYGGGRYAFGQGTKVEIKRTVAAPSVFIFPPSDEQLKSGTASVVCLLNNFYPREAKVQWKVDNALQSGNSQESVTEQDSKDSTYSLSSTLTLSKADYEKHKVYACEVTHQGLSSPVTKSFNRGEC
notes: Position 396 variant derived from MY052, expressed with M103202L889-SK1 as light chain
For B1, the “KD fold (SG1 = 1)” value in test [1] is 1.5 fold; in test [2], 1.4 fold; in [3], 0.4 fold; in test [4] it was 2.9 fold. Also, the Kd was 2.4 µM in test [5]; 2.3 µM in test [6]; 1.7 µM in [7]; 2.9 µM in test [8]; 6.3 µM in test [9].

B2: M103205H795-MY171 / M103202L889-SK1 (antibody, human IgG1, kappa)
heavy: QVTLKESGPVLVKPTETLTLTCTVSGIDLSHDDISWVRQAPGKGLEWVGIISYAGSTYYASWAKGRLTISKDTSKNQVVLTMTNMDPVDTATYYCARGVPAYSHGGDLWGQGTLVTVSSASTKGPSVFPLAPSSKSTSGGTAALGCLVKDYFPEPVTVSWNSGALTSGVHTFPAVLQSSGLYSLSSVVTVPSSSLGTQTYICNVNHKPSNTKVDKKVEPKSCDKTHTCPPCPAPELLNGPSVFLFPPKPKDTLMISRTPEVTCVVVDVSEEDPEVKFNWYVDGVEVHNAKTKPREEQYNSTYRVVSVLTVLHQDWLNGKEYKCKVSNKALPAPIEKTISKAKGQPREPQVYTLPPSREEMTKNQVSLTCLVKGFYPSDIAVEWESNGQPENNYKTTPFVLDSDGSFFLYSKLTVDKSRWQQGNVFSCSVMHEALHNHYTQKSLSLSP
light: DIVMTQSPATLSLSPGERATLSCTSSQSVYHANWLSWFQQKPGQPPKLLIYWASTLAYGVPSRFSGSGSGTDFTLTISSLQPEDAATYYCAGGYGGGRYAFGQGTKVEIKRTVAAPSVFIFPPSDEQLKSGTASVVCLLNNFYPREAKVQWKVDNALQSGNSQESVTEQDSKDSTYSLSSTLTLSKADYEKHKVYACEVTHQGLSSPVTKSFNRGEC
notes: as for B1
Turning to B2, the “KD fold (SG1 = 1)” value in test [1] was 1.8 fold; in test [2] it was 1.4 fold; in [3] it was 0.5 fold; in test [4], 3.8 fold. In addition, the dissociation constant (Kd) in test [5] came out at 23 µM; in test [6] it was 2.3 µM; in [7] it was 1.2 µM; in test [8], 3.5 µM; in test [9], 5.9 µM.
